Laboratory results published in a protein production outcome set (Wang et al. 2014).

Assay: label from the status in PepcDB records
For “MTSGVAPLPGIVSTLSAAAEAVSEALIALDADGGILVVNGAAERVFDRRRDDLIGRSLDVVFGGDFAEAMASNLSAKVDALPPAPGGGRLLRRPGLPPLALHAGFSVTGDHGRPLATIVIRDLSPRADSWLETEERLGGFAASMPGIIFQRVAHRDGSLSYPFLSSGVHAVLGYHPAEMSVALDGCLNAIHWADRESYLRRLRQSAQTLAICSEEFRAITREGAVKWLSGASQPRAMANGDILWDGVLVDVTERKRAELWLEMIMDRAADGIVTINEQGVIESANAAVGTFFGYADRGELIGRRVEILMAEADRRQHTRHMLRYRETGDGALIGAGPRELTGRRRDGTTFALELALSEVRTEGRRIFIAVIRDITQRKETEGALAATRARLQTIADNVPGLVFQRELTAEGVLRFLFVSNGVHEVLGITPEALLADGELFLGAMDPDVRAAFRETLRQSASRLEPMEEDIKLRGRDGEERWLRGWSRPSRREDGSVVWDGVTLDVTDRKRAEDKLTFLAYYDPLTGLGNRSLFIDRFDRARRFAESIQAWVAVLSIGLDRFGMVNATIGHTMGDKVLIAVTRRLQQSLEAGSIVCRAGGDRFLVLLTGLTDRADLREVVATIQDAFVPPIEVEGQQFDIGLTIGGALHPEDGREAETLIMHADAALHRAKGGGGAFQMFTPEMGARAAHLLTIQHKLRRGLERHEFVAYFQPQVDLRSGLITGCEALARWNSPEDGLVPPGKFIGVAEEYGLIDAICGQVLDDSCRWLSTWRARGLPQVPVAVNISGRQFQNARQLVAMVDQALRQSGVDPRLLELELTESSAMSDPENAIAVVNLLRERGVSCAIDDFGTGYSSLSVLKRFPIGKLKIDRSFVMDVTTDPNDAAIVQAIIAMAHALNLRVVAEGVETLDHLAFLREVHCDAVQGFLFARPLPGEDMALMLAGGPPQPNPR”, the protein production was “failed”.
For “MTSHTLTQGGRTTATIALLLAMLLWSSSFIAMKIALTGFDPMVMIFGRMAIASVIFIAVWRRNFSGVRYRAGDWKLLGFMTMCEPCLYFVFEAYALEYTSASQAGMIVAMMPLSVAVAARFVLKEHMARSAWAGFCLAIAGVVWLSLGGQVTENAPNPMLGNALEVCAMLTATGYVISAKRLSSTYPPLFITAVQSLAGFVFFLPVLALPGVTLPTSLPLTPTLAVLYLGVCITLGAYGLYNYGVSRLPAGQAASYINLIPVLTLIMGRVVLGDELSPSQYLASLLVLAGVVLSQRRAAA”, the protein production was “failed”.
In the case of “MTSKSEWSNARRIVIILADVLLYNLSIILGFMVKFGREIPSFNFVAYEKSAIYISIFFIFLNLLLGAYIFYNRKISDIIFVTVIGQILMTLTIMIVTFAGRWFTFPRSVLGYSFIIGIIVLSLWRILVYYLYLKVSNERKVVLLGKENQVMRSIQNFMSDKNNKHKVTSVVVSNYYENLKKIIDEIDIVYISSNVDENEKVKLYQLIVKHKKKIFLDTSFENLIMLKPNMMNFEDESIIEVSNFEIQPEENFIKRLFDILVSVCLFVITSPLMLIAAILVKATSPGPVIYKQTRITLDQREFSILKFRTMSATAEAKSGPVLSTSNDSRVTTVGKYLRALRIDELPQLINVIRGDMSIVGPRPERPFFVDQFNQENPNYYLRHNVRAGITGYAQVYGKYASDYNSKLNFDLLYIKNYSLLLDMKILLQTIKILFDKVSSRGLDESEEREELTMDYCKENAIRIYR”, the protein production is reported as “failed”.
In the case of “MTSLNVLVAVCMAYVILLFGVAFAADRLSSTGRTTWLRSPLVYTLSLSIYCTAWTFYGAVGYAARSGLEFVTIYLGPTLVMIGWWWGLRKLVRVGRSQRVTSIADLISSRYGKSNTLAVCVTLLAVIGVTPYIALQLQSITLSFDIFAEADPVSRPGEGSSAFWVACGLAVFAILFGTRNLDANERHHGVVTAVAIEAVVKLVALLAVGVFVVWGIAGGLGDTLARIDASEIGVWQVDHGRWATITFLAAAAFVCLPRMFQVMVVENDDERHLRTAAWAFPLYLMLMSLFVVPIAVVGLELMPEGANPDLFVLTIPLAEGQETLAMLSFLGGFSSATSMVIVAAMALSTMVSNHIVMPIWLNAQGSGASVSGDVRSVVLYARRVSIAVILALGYFYYRLSGGGAALASIGLIAFAGIAQILPALVGGLFWRGATRTGALVGLTVGFVLWLYTLLLPGMGAGVIAPQVMEHGLFGLSWLRPQALFGIAGMDPMVHSVMWSLSLNTAAFCIASLLSFPSPLERLQGAQFVNVFDHSAGPRGWTGSVAQSEDLMIMSQRIMGAREAQEFFQSEAMAQGSRAYLPEPTPAFLERLERELSGSVGAATAHAMIGQIVGGSSVSVEDLLAVADESAQLLEYSSRLEAKSAELSRTARKLREANEKLTQISLQKDAFLSQISHELRTPMTSIRAFSEILRDTDGLAPVDKTRYAAIIHDEALRLTRLLDDLLDLSVLENGQVTLNMGQGRLVDVLDRAMATALTGTDRPLRVRRHRGAERIVLRTDLDRLSQVFINLITNAQKYCDAADPELSVTVHDVGGRIVVDLIDNGSGIPRDARKMVFEKFARVGAEKAGGAGLGLAICREIMQRLGGDISYLSGQEGGAFRVSLPVGMEIAAQ”, the protein production is reported as “failed”.
For “MTSLPTPIIGLIVAVFVLVWLVLRTRVHALIAMLAAACIAGLLGGMGIDKTLSVITSGFGTTLGSIGLVIGLGVMMGRLLEVSGAAERIAWSFIKWLGKRREEWALAITGYIVSIPIFVDSAFVILYPVAKALAKSGKRSLLTLGVALAGGLAVTHHTVPPTPGPLGVAGIFNVDIGAMLLTGMALAVPCVIGIVFYAQWLDKRYPDFVPRTLNADEVNAALEQYNKEKEQKDLPSLTLSLLPIVVPIVLIFLKAICSTLATIEGWSGLATHPVVQAINFVGSPVIALAISVLLAVYTLVPRMDKHTTAERLEEGLQSAGIILLVTGAGGALGAILRDSGAGQQLAEQVANLPISPILIPFIVATLVRLIQGSGTVAMITAASISAPILAQIPGINMLLAAQAATMGSLFFGYFNDSLFWVVNRMMGVSDVKQQMVVWSVPTTIAWAIGGTGVALINLLFGSGGSWLDPLLPIVVLAAIMLWVRWQAQGIKDKLVVKD”, the protein production was “failed”.
With “MTSLTQRSSGLVQRRTEASRNAADKERAAGGGAGSSEDDAQSRRDEQDDDDKGDSKETRLTLMEEVLLLGLKDREGYTSFWNDCISSGLRGCMLIELALRGRLQLEACGMRRKSLLTRKVICKSDAPTGDVLLDEALKHVKETQPPETVQNWIELLSGETWNPLKLHYQLRNVRERLAKNLVEKGVLTTEKQNFLLFDMTTHPLTNNNIKQRLIKKVQEAVLDKWVNDPHRMDRRLLALIYLAHASDVLENAFAPLLDEQYDLATKRVRQLLDLDPEVECLKANTNEVLWAVVAAFTK” the protein production was “failed”.
For “MTSPSPDQVIRQEILALSAYHVPPAKDMVKLDAMENPYRLPPFLCEEISRIAADTSINRYPDPHAAALKEVLSTTLSVPAGMEIMLGNGSDEIIQIIMLAAAKPEAKLLTIEPGFAMFKMIATFANMQYIGIPLKPDFSLDIDRMLAAIERHQPSVIFLAYPNNPSGNLFDTSALEKIIEISPGLVVIDEAYHPFAGKSFIGRLADYPNLLVMRTLSKLGLAGLRLGLLAGRPEWLSHLEKLRLPYNVNVITQLVATKIMQHYDVLQQQADAIRQTRTRLRTFLENLNGIEVFPSNANFILFRLDGASQIFRLLQQHGILVKNLDNSHPLLKNCLRVTVGTPEENDRFCNTLQDLIAGN”, the protein production was “failed”.
In the case of “MTSQVANPPVQSIRLLFSALLLVMLLSALDQTIVSTALPTIVGELGGLDKLSWVVTAYILSSTIAVPLYGKFGDLFGRKIVLQVAIGLFLVGSALCGLAQNMTQLVLMRGLQGLGGGGLMVISMAAVADVIPPANRGRYQGLFGGVFGLATVIGPLIGGFLVQHASWRWIFYINLPLGLFALLVIGAVFHSSNKRSQHQIDWLGAIYLSMALLCIILFTSEGGSVHAWNDPQLWCILAFGIVGIIGFIYEERMAAEPIIPLALFRNRSFLLCSLIGFVIGMSLFGSVTFLPLYLQVVKEATPTEAGLQLIPLMGGLLLTSIISGRIISRTGKYRLFPILGTLLGVTGMVLLTRITIHSPLWQLYLFTGVLGAGLGLVMQVLVLAVQNAMPAQMYGVATSGVTLFRSIGGSIGVALFGAVFTHVLQSNLQQLLPEGAVLPPGMNPVAVQHLPADIRLDYLDAFGAAIHAAFLMAAGIMAVAFVLSWLLKEAPLKTATH”, the protein production is reported as “failed”.
In the case of “MTSSSPPAIPADARRQHAERTTLVSAAVNCALSAGQIAAGLWSHSQGLVADGLHTLSDLIADGIVFIANRNSHKGPDEDHQYGHARYENAASLGLGLLLMAAGAGMIWSALASLSAPHGAAPVHGLALWVALAALAAKEGLFRYMLAVARRIGSRMLVANAWHARSDAVSSLVAAVGVAGNLMGFRWLDPVAACVVGAMIGRVGIRFGWEALNDLMDRALPPAQVQAIRASLAATPGVINVHDLRTRVTGDQALVDAHIEVDPRVSVSEGHAIAVRARANVLAAHTAMAVLDVQLHVDPRERVYTDPLPLPDRDALCAVLAQALPPGTPLDARHCLLHYVEGGVEVDLILPPSLADHAAPVAETVRARWHGRVRLRALTAASGATARGPVRP”, the protein production is reported as “failed”.
With “MTSTASSTDIRQGQAADEQWPSWQQRLRRFGYTAPPRTDVRDRLVPPFSEPSPRLWAAIGLRQEVADRVTRWSAWGGPLLVTLLAGLLRFWNLGSPKAVIFDETYYAKDAWALIHNGYEANWAKDANDLILQGNGHVAIPTDPAYVVHPPVGKYVIGLGEWLFGFTPFGWRFMTALLGTLSVLLLCRIGRRLFRSTFLGCLAGALMAVDGLHFVMSRTSLLDGVLMFFVLAAFGCLVVDRDRARARLAAALPADADGVVRPDAHTAETTRLGPRPWRWLAGLMLGLALGTKWNALYVMAAFCVMAVLWDVGSRRVAGARRPYAAVLRRDTGITFLATVPVAVATYLVSWTGWILSPANGSGGYFRNWAATDGKGGHWTWLPDWLRSLWHYEHEVYEFHVGLSSPHQYQSNPWSWLVAGRPVSYFYESPSPGKDGCPADAGEKCAREVLALGTPLLWWAACFAVLYVLWRWLFRRDWRAGAIACGIAAGWLPWMMYQERTIFYFYAVVFVPFLCLAVAMMIGAILGPPGSGERRRVVGAAGAGVLVLLIAWNFIYFWPLYTGTAIPIDDWRSRMWLDTWV” the protein production was “failed”.
For “MTTALRQPTLSSQCLAEFLGTALLIFFGTGCVAALKVAGASFGLWEISIIWGVGVSMAIYLTAGISGAHLNPAVSIALTLFAGFDKRKLPFYMLAQVCGAFCGAALVYTLYSNLFFDFEQAHAMLRGSEGSLELASVFSTYPHPSLSTSQAFLVEVVITAILMAVIMALTDDNNGLPRGAMAPLLIGLLIAVIGSAMGPLTGFAMNPARDFGPKLMTFLAGWGEIAFTGGRDIPYFLVPVFAPILGACLGAASYRGLIARNLPMAPAATPETNDIRQGDTQAN”, the protein production was “failed”.
In the case of “MTTASGPGDLPAGSPVSSLHEALDQCMTALDLFLTNQFSEALSYLKPRTKESMYHSLTYATILEMQAMMTFDPQDILLAGNMMKEAQSLCQRHRRKSSMTDSFSNLVHRPTIDQFTEEEIHAEVCYAECLLQRAALTFLQDENMVSFIKGGIKVRNSYQTYKELDSLVQSSQYSKGESHRHFEGGVKLGVGAFNLTLSMLPTRILRLLEFVGFSGNKDYGLLQLEEGATGHSFRAVLCVMLLLCYHTFLTFVLGTGNVNIEEAEKLLKPYLNRYPKGAIFLFFAGRIEAIKGNIDAAVRRFEECCEAQQHWKQFHHMCYWELMWCFTYKGQWKMAYFYADLLSKENSWSKATYIYMKAAYLSMFGKEDYKPFGDNEVELFRAVPGLKLKIAGKSLPTEKFAIRKSRRYLSPNPISLPIPALEMMYIWNGYAVIGKQPTLTDGMLEVITKAEEMLAMGPENEYSADDDCLVKLLKGLCLKYLGRIQEAEENFRSISANEKKIKYDHYLIPNALLELALLFMEQGRNEEAIKLLESAKQNYKNYSMESRTHLRIQAATLQARSSLEDGNRSLVSSVSL”, the protein production is reported as “failed”.
In the case of “MTTATAGLAVELKQSTAQAHEKAEHSTFMSDLLKGRLGVAEFTRLQEQAWLFYTALEQAVDAVRASGFAESLLDPALNRAEVLARDLDKLNGSSEWRSRITASPAVIDYVNRLEEIRDNVDGPALVAHHYVRYLGDLSGGQVIARMMQRHYGVDPEALGFYHFEGIAKLKVYKDEYREKLNNLELSDEQREHLLKEATDAFVFNHQVFADLGKGL”, the protein production is reported as “not failed”.
With “MTTDRPLSPPLDHAWIAARIPHSGAMCLLDQVVTWDDTHIRCTTTSHRAPDNPLRAHGRLAAVCGIEYAAQAMAVHGAILGNAQDRPRAGFLASVRSVEAHVERLDTIEAPLTIEAERIGGDGNNVLYRFSVRCGERVLLTGRAAVVLDAAGLGLPDAGALAKANAQAR” the protein production was “failed”.
